Reference: patent US20110243962A1 (GENEURO, published 2011)

Experiments:
[1] = target: T1, MSRV complete ENV protein (ENV-T), recombinant from E. coli (MSRV (Multiple Sclerosis associated …)); assay: cell-based or functional assay
T1 chain: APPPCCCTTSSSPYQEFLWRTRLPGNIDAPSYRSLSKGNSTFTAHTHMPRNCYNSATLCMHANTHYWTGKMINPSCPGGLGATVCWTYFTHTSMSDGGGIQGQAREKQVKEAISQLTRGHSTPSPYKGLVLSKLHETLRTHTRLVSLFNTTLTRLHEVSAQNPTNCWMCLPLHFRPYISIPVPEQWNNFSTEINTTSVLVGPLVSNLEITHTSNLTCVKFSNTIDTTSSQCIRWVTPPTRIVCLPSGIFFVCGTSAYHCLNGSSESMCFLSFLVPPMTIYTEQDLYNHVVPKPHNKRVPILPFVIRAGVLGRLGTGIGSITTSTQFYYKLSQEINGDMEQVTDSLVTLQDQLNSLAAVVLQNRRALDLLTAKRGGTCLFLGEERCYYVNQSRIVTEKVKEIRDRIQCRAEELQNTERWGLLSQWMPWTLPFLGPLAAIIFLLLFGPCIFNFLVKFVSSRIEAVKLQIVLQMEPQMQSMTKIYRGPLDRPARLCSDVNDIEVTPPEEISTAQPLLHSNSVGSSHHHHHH

[2] = target: T2, MSRV ENV surface domain fragment (ENV-SU), recombinant from E. coli (MSRV (Multiple Sclerosis associated …)); assay: cell-based or functional assay
T2 chain: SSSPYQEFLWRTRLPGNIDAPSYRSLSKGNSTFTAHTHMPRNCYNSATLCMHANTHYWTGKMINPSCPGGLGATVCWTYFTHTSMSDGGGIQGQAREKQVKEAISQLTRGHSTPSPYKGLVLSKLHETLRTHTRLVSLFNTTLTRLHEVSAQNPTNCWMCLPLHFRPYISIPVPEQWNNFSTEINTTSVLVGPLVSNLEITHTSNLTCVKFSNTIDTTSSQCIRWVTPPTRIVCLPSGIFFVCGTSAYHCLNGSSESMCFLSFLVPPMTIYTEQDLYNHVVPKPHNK

B1: Humanized GNb AC1 IgG4 antibody (stabilized, H2 S241P heavy chain and VK3 light chain) (antibody, V domains shown)
VH: QVQLVQSGAEVKKPGSSVKVSCKASGYTFTDYEMHWVRQAPGQGLEWIGAVAPETGGTAYNQKFKGRATITADKSTSTAYMELSSLRSEDTAVYYCTSTVVPFAYWGQGTLVTVSS
VL: QIQLTQSPSSLSASVGDRVTITCSASSSVSYMYWYQQKPGKAPKAWIYRTSNLASGVPSRFSGSGSGTDYTLTISSLQPEDFATYYCQQYQSLPLTFGGGTKVEIKR
B1 was tested, and the “IL-6 at 24 h in PBMC culture with ENV-T 0.1 ug/ml, MAb ratio 10/1 (no antibody: 4363)” value [1] was 2910 and the “IFN-g at 72 h in PBMC culture with ENV-SU 0.5 ug/ml, MAb ratio 10/1 (no antibody: 336)” value [2] was 46.
